Results on 15 molecules are retold here after patent US20250042957A1 (Molecular Partners, published 2025).

To fix the notation:
T1: scCD3εγ
T1 chain 1: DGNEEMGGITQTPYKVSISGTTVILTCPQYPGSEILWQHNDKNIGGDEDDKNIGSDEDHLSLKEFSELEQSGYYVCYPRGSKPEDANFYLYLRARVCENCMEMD
T1 chain 2: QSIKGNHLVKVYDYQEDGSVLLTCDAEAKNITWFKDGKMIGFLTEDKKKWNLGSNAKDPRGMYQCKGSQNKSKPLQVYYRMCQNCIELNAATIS

T2: CD3-specific binding domain (SEQ ID NO: 3) (biotinylated when used as immobilized SPR ligand (site not stated))
T2 construct: also called α-CD3 DARPin
T2 chain: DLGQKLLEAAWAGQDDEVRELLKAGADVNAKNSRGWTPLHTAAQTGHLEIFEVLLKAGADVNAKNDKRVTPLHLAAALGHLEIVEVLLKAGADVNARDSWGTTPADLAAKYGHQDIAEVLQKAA

B1: 2-in-1 DARPin 24 (SEQ ID NO: 93) (designed binder)
chain: DLGKKLLQAARAGQLDEVRELLKAGADVNAKDSQGRTPLHLAAFAGHLEIVEVLLKAGADVNAKDHAGWTPLHLAAYAGHLEIVEVLVKAGADVNAKDTEGKTPLHIAAWFGHLEIVEVLLKAGADVNAKDKSGKTPLHLAARAGHLEIVEVLLKAGADVNAKDNSGQTPLHEAAWAGHLEIVEVLLKAGADVNAKNSRGWTPLHTAAQTGHLEIFEVLLKAGADVNAKNDKRVTPLHLAAALGHLEIVEVLLKAGADVNARDSWGTTPADLAAKYGHQDIAEVLQKAA
notes: Family 2, from Parent nos 3 and 4; tag not specified
B2: 2-in-1 DARPin 25 (SEQ ID NO: 94) (designed binder)
chain: B1 chain with E173L
notes: as for B1
B3: 2-in-1 DARPin 23 (SEQ ID NO: 92) (designed binder)
chain: DLGKKLLQAARAGQLDEVRELLKAGADVNAKDSQGRTPLHLAAFAGHLEIVEVLLKAGADVNAKDHAGWTPLHLAAYAGHLEIVEVLVKAGADVNAKDTEGKTPLHIAAWFGHLEIVEVLLKAGADVNAKDKSGQTPLHLAAWAGHLEIVEVLLKAGADVNAKNSRGWTPLHTAAQTGHLEIFEVLLKAGADVNAKNDKRVTPLHLAAALGHLEIVEVLLKAGADVNARDSWGTTPADLAAKYGHQDIAEVLQKAA
notes: as for B1
B4: 2-in-1 DARPin 12 (SEQ ID NO: 7) (designed binder)
chain: DLDKKLLEAARAGQDDEVRILLKAGADVNAKDSTGWTPLHLAAPWGHPEIVEVLLKAGADVNAKDVYGWTPLHLAAAAGHLEIVEVLLKAGADVNAKDWLGWTPLHLAASHGHLEIVEVLLKAGADVNAQDKSGKTPADLAARAGHQDIAEVLQKAA
notes: N3C mono-domain; purified by its His-tag
B5: 2-in-1 DARPin 11 (SEQ ID NO: 6) (designed binder)
chain: B4 chain with L74I, A78S
notes: as for B4
B6: 2-in-1 DARPin 15 (SEQ ID NO: 9) (designed binder)
chain: B4 chain with V66F, Y67Q
notes: as for B4
B7: 2-in-1 DARPin 13 (SEQ ID NO: 8) (designed binder)
chain: B4 chain with V66F
notes: as for B4
B8: 2-in-1 DARPin 17 (SEQ ID NO: 10) (designed binder)
chain: B4 chain with D3G, E8Q, D15L, I20E, V66F, Y67Q
notes: as for B4
B9: 2-in-1 DARPin 20 (SEQ ID NO: 13) (designed binder)
chain: DLDKKLLEAARAGQDDEVRILLKAGADVNAKDSTGWTPLHLAAPWGHPEIVEVLLKAGADVNAKDFQGWTPLHLAAAAGHLEIVEVLLKAGADVNAKDVYGWTPLHLAAAAGHLEIVEVLLKAGADVNAKDWLGWTPLHLAASHGHLEIVEVLLKAGADVNAQDKSGKTPADLAARAGHQDIAEVLQKAA
notes: N4C mono-domain; purified by its His-tag
B10: 2-in-1 DARPin 19 (SEQ ID NO: 12) (designed binder)
chain: B9 chain with Q67K
notes: as for B9
B11: 2-in-1 DARPin 18 (SEQ ID NO: 11) (designed binder)
chain: B9 chain with L107I, A111S
notes: as for B9
B12: Switchdrug DARPin 15-1 (designed binder)
chain: MRGSHHHHHHGSDLGQKLLEAAWAGQDDEVRELLKAGADVNAKNSRGWTPLHTAAQTGHLEIFEVLLKAGADVNAKNDKRVTPLHLAAALGHLEIVEVLLKAGADVNARDSWGTTPADLAAKYGHQDIAEVLQKAAGSPTPTPTTPTPTPTTPTPTPTGSDLDKKLLEAARAGQDDEVRILLKAGADVNAKDSTGWTPLHLAAPWGHPEIVEVLLKAGADVNAKDFQGWTPLHLAAAAGHLEIVEVLLKAGADVNAKDWLGWTPLHLAASHGHLEIVEVLLKAGADVNAQDKSGKTPADLAARAGHQDIAEVLQKAA
notes: also called 2-in-1 DARPin15 in Format 1
B13: Switchdrug DARPin 18-1 (designed binder)
chain: MRGSHHHHHHGSDLGQKLLEAAWAGQDDEVRELLKAGADVNAKNSRGWTPLHTAAQTGHLEIFEVLLKAGADVNAKNDKRVTPLHLAAALGHLEIVEVLLKAGADVNARDSWGTTPADLAAKYGHQDIAEVLQKAAGSPTPTPTTPTPTPTTPTPTPTGSDLDKKLLEAARAGQDDEVRILLKAGADVNAKDSTGWTPLHLAAPWGHPEIVEVLLKAGADVNAKDFQGWTPLHLAAAAGHLEIVEVLLKAGADVNAKDVYGWTPLHIAAASGHLEIVEVLLKAGADVNAKDWLGWTPLHLAASHGHLEIVEVLLKAGADVNAQDKSGKTPADLAARAGHQDIAEVLQKAA
notes: also called 2-in-1 DARPin18 in Format 1
B14: Switchdrug DARPin 15-A (designed binder)
chain: MRGSHHHHHHGSDLGKKLLQAARAGQLDEVRELLKAGADVNAKDQYGRTPLHLAAIKGHLEIVEVLLKAGADVNAKDSLGYTPLHLAAVEGPLEIVEVLLKAGADVNAKDAYGQTPLHIAAAWGHLEIVEVLLKAVADVNAQDKSGKTPADLAARAGHQDIAEVLQKAAGSPTPTPTTPTPTPTTPTPTPTGSDLGQKLLEAAWAGQDDEVRELLKAGADVNAKNSRGWTPLHTAAQTGHLEIFEVLLKAGADVNAKNDKRVTPLHLAAALGHLEIVEVLLKAGADVNARDSWGTTPADLAAKYGHQDIAEVLQKAAGSPTPTPTTPTPTPTTPTPTPTGSDLDKKLLEAARAGQDDEVRILLKAGADVNAKDSTGWTPLHLAAPWGHPEIVEVLLKAGADVNAKDFQGWTPLHLAAAAGHLEIVEVLLKAGADVNAKDWLGWTPLHLAASHGHLEIVEVLLKAGADVNAQDKSGKTPADLAARAGHQDIAEVLQKAA
notes: also called 2-in-1 DARPin15 in Format A
B15: Switchdrug DARPin 15-B (designed binder)
chain: MRGSHHHHHHGSDLDKKLLEAARAGQDDEVRILLKAGADVNAKDSTGWTPLHLAAPWGHPEIVEVLLKAGADVNAKDFQGWTPLHLAAAAGHLEIVEVLLKAGADVNAKDWLGWTPLHLAASHGHLEIVEVLLKAGADVNAQDKSGKTPADLAARAGHQDIAEVLQKAAGSPTPTPTTPTPTPTTPTPTPTGSDLGKKLLQAARAGQLDEVRELLKAGADVNAKDQYGRTPLHLAAIKGHLEIVEVLLKAGADVNAKDSLGYTPLHLAAVEGPLEIVEVLLKAGADVNAKDAYGQTPLHIAAAWGHLEIVEVLLKAVADVNAQDKSGKTPADLAARAGHQDIAEVLQKAAGSPTPTPTTPTPTPTTPTPTPTGSDLGQKLLEAAWAGQDDEVRELLKAGADVNAKNSRGWTPLHTAAQTGHLEIFEVLLKAGADVNAKNDKRVTPLHLAAALGHLEIVEVLLKAGADVNARDSWGTTPADLAAKYGHQDIAEVLQKAA
notes: also called 2-in-1 DARPin15 in Format B

Positions count from the first letter of the chain named. Numbers in names are those of the source.

T3 sequence (P15692 other isoform, or with tags, fused parts or gaps limits assumed): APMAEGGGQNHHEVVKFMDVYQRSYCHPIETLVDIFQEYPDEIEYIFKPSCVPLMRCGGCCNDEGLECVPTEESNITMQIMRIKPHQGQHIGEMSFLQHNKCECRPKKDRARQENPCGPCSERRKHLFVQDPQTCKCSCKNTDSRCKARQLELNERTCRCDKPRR

The first experiment concerns the target T1, scCD3εγ. The experiment is described as follows: ELISA on scCD3εγ, DARPin titrated.
With B1, the half-maximal effective concentration (EC50 (read off the curve)) was around 10 nM.
As to B2, the 50% effective concentration (EC50 (read off the curve)) is around 10 nM.
In the case of B3, the “EC50 (read off the curve)” value is around 30 nM.

The target in a further experiment is T1, scCD3εγ. The experiment is described as follows: SPR, bio-scCD3εγ coated on NAD chip, DARPin 333.33-4.11 nM.
B1 displayed a Kd of 4.67 nM.
Molecule B2 displayed a Kd of 4.05 nM.
Turning to B3, the Kd worked out at 3.81 nM.

A further experiment concerns the target T3, VEGF165 (UniProt P15692-4 27-191, biotinylated in the ELISA of Example 4 (site not stated)).
T3 construct: also called biotinylated VEGF165; soluble VEGF
The experiment is described as follows: SPR (ProteOn), VEGF165 immobilized, multi-trace 50-0.195 nM, 25 C.
B4 yielded a Kd of 6.66 nM, a dissociation rate constant (koff) of 0.0106 s⁻¹ and a kon of 1.59e+06 M⁻¹ s⁻¹.
B5 gave a Kd of 11.1 nM, a koff of 0.0153 s⁻¹ and a kon of 1.38e+06 M⁻¹ s⁻¹.
B6 gave a Kd of 0.02 nM, a koff of 0.0001 s⁻¹ and a kon of 4.11e+06 M⁻¹ s⁻¹.
Molecule B7 showed a Kd of 0.81 nM, a dissociation rate constant (koff) of 0.00268 s⁻¹ and a kon of 3.29e+06 M⁻¹ s⁻¹.
On to B8, for which the affinity, expressed as Kd, was 0.18 nM; the koff worked out at 0.00085 s⁻¹; the kon came out at 4.63e+06 M⁻¹ s⁻¹.
As to B9, binding was put at a Kd of 0.69 nM and the kon came to 1.29e+06 M⁻¹ s⁻¹.
As to B10, the affinity, expressed as Kd, was 68.5 nM; the koff is 0.0949 s⁻¹; the kon is 1.38e+06 M⁻¹ s⁻¹.
For B11 the same measures were 0.1 nM, 0.00012 s⁻¹ and 1.16e+06 M⁻¹ s⁻¹.

The next experiment deals with T2, CD3-specific binding domain (SEQ ID NO: …). The experiment is described as follows: SPR; KD on CD3-specific binding domain (Ligand1) divided by KD on VEGF165 (Ligand2).
Take B4: the “KD ratio (Ligand1/Ligand2)” value came to 0.195.
B5: the “KD ratio (Ligand1/Ligand2)” value came to 0.0865.
As for B6, the “KD ratio (Ligand1/Ligand2)” value is 59100.
As to B7, the “KD ratio (Ligand1/Ligand2)” value amounted to 14.2.
On to B8, for which the “KD ratio (Ligand1/Ligand2)” value was 2180.
On the same count and under the same terms, next, B9: 2.09; B10: 0.00647.
B11: the “KD ratio (Ligand1/Ligand2)” value was 17.

Another experiment concerns the target T1, scCD3εγ. The experiment is described as follows: ELISA: plate-bound biotinylated scCD3εγ, His-tagged construct titrated, no VEGF.
Experimental: (§1) The difference in binding of Switchdrug DARPins to scCD3εγ in presence and absence of VEGF was assessed. […] Said Switchdrug DARPins were mixed with a constant concentration of VEGF (100 nM) and tested for binding to scCD3εγ. […] The difference in EC50 of a construct in presence and absence of VEGF can be referred to as the “activation window”.
(§2) Switchdrug DARPins that were mixed with VEGF were titrated and pre-incubated for 1 day with VEGF in order to establish the thermodynamic equilibrium. These samples were loaded on the ELISA plate, incubated and washed, before the bound Switchdrug DARPins were detected as described above.
For B12, the “EC50 (read off the curve)” value is around 50 nM.
As to B13, the “EC50 (read off the curve)” value is around 100 nM.

In the next experiment the target is T2, CD3-specific binding domain (SEQ ID NO: …). Kind of experiment: SPR (ProteOn), biotinylated CD3-specific binding domain immobilized, multi-trace 50-0.195 nM, 25 C.
B4 came in with a Kd of 1.3 nM, a koff of 0.00081 s⁻¹ and a kon of 624000 M⁻¹ s⁻¹.
Molecule B5 yielded a Kd of 0.96 nM, a koff of 0.00067 s⁻¹ and a kon of 691000 M⁻¹ s⁻¹.
For B6, the Kd worked out at 1360 nM, the koff is 0.205 s⁻¹ and the kon came out at 151000 M⁻¹ s⁻¹.
B7: the Kd came out at 11.5 nM, the koff was 0.008 s⁻¹ and the kon stood at 693000 M⁻¹ s⁻¹.
In turn, B8 had a Kd of 392 nM.
Turning to B9, the Kd was found to be 1.44 nM, the koff amounted to 0.0005 s⁻¹ and the kon was found to be 350000 M⁻¹ s⁻¹.
Molecule B10 had a Kd of 0.44 nM, an off-rate (koff) of 0.0002 s⁻¹ and a kon of 450000 M⁻¹ s⁻¹.
With B11, the Kd was determined as 1.7 nM, the koff amounted to 0.00087 s⁻¹ and the kon worked out at 514000 M⁻¹ s⁻¹.

A further experiment deals with T1, scCD3εγ. The experiment is described as follows: ELISA: plate-bound biotinylated scCD3εγ, His-tagged construct titrated in presence of 100 nM soluble VEGF.
Experimental: as §1, §2
Turning to B12, the “EC50 (read off the curve)” value was around 3 nM.
For the molecule B13, the “EC50 (read off the curve)” value was around 40 nM.

The next experiment has as its target T1, scCD3εγ. Kind of experiment: ELISA: plate-bound biotinylated scCD3εγ, His-tagged construct titrated without and with 100 nM soluble VEGF.
Experimental: as §1, §2
For the molecule B12, the “shift in EC50 upon addition of 100 nM VEGF” value was around 18 fold.
The same measure, in the same setting: then B13, with around 3 fold.

The next experiment deals with T3, VEGF165. Kind of experiment: ELISA: plate-bound biotinylated VEGF165, His-tagged construct titrated, no soluble VEGF, anti-His-HRP detection.
Experimental: Then a titration of the Switchdrug DARPins was applied, incubated and washed. Detection of bound his-tagged constructs was done by anti-RGS(his)4 mAb HRP conjugate, and detected by TMB substrate.
As to B14, the “EC50 (read off the curve)” value is around 20 nM.
B15: the “EC50 (read off the curve)” value is around 10 nM.
